The supplement of paper PMC9112550, “Optimization of the antimicrobial peptide Bac7 by deep mutational scanning” (BMC Biology, 2022)

Tested on: Escherichia coli TOP10
Assay: shrunken log2 fold change of peptide-encoding DNA abundance (4.5 h post-induction vs induction); higher = less antimicrobial activity (less host growth inhibition)
Conditions: time post-induction: 4.5 h; library: site-saturation at positions 5, 18, 19, 20
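Further: peptides expressed intracellularly from a pBAD plasmid library in pooled LB shake-flask culture, induced with 0.3% L-arabinose, DNA abundance read by NGS, three biological replicates, DESeq2 with apeglm shrinkage.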

| Sequence | shrunken log2 fold change |
| --- | --- |
| RRIRNRPPRLPRPRPRPDIQPRP | -0.0597 |
| RRIRNRPPRLPRPRPRPDKIPRP | 0.159 |
| RRIRNRPPRLPRPRPRPDLCPRP | -0.0418 |
| RRIRNRPPRLPRPRPRPDLKPRP | 0.0748 |
| RRIRNRPPRLPRPRPRPDMHPRP | -0.0698 |
| RRIRNRPPRLPRPRPRPDPAPRP | 0.172 |
| RRIRNRPPRLPRPRPRPDPKPRP | -0.00647 |
| RRIRNRPPRLPRPRPRPDPNPRP | -0.488 |
| RRIRNRPPRLPRPRPRPDRAPRP | 0.171 |
| RRIRNRPPRLPRPRPRPDRGPRP | -0.0223 |
| RRIRNRPPRLPRPRPRPDRMPRP | -0.282 |
| RRIRNRPPRLPRPRPRPDRQPRP | -0.0285 |
| RRIRNRPPRLPRPRPRPDSLPRP | 0.0321 |
| RRIRNRPPRLPRPRPRPDTVPRP | -0.0521 |
| RRIRNRPPRLPRPRPRPDWHPRP | -0.394 |
| RRIRNRPPRLPRPRPRPDYLPRP | -0.142 |
| RRIRNRPPRLPRPRPRPDYNPRP | -0.782 |
| RRIRNRPPRLPRPRPRPEAYPRP | 0.0274 |
| RRIRNRPPRLPRPRPRPECPPRP | 0.012 |
| RRIRNRPPRLPRPRPRPECQPRP | 0.00386 |
| RRIRNRPPRLPRPRPRPEDWPRP | -0.0232 |
| RRIRNRPPRLPRPRPRPEGLPRP | 0.364 |
| RRIRNRPPRLPRPRPRPEGPPRP | 0.026 |
| RRIRNRPPRLPRPRPRPEHKPRP | 0.00308 |
| RRIRNRPPRLPRPRPRPEHNPRP | -0.486 |

| Sequence | shrunken log2 fold change |
| --- | --- |
| RRIRNRPPRLPRPRPRPEHPPRP | 0.115 |
| RRIRNRPPRLPRPRPRPEIKPRP | 0.101 |
| RRIRNRPPRLPRPRPRPEKIPRP | -0.0207 |
| RRIRNRPPRLPRPRPRPELQPRP | -0.0211 |
| RRIRNRPPRLPRPRPRPENAPRP | -0.133 |
| RRIRNRPPRLPRPRPRPEPAPRP | 0.88 |
| RRIRNRPPRLPRPRPRPEPGPRP | 0.321 |
| RRIRNRPPRLPRPRPRPEPRPRP | 0.635 |
| RRIRNRPPRLPRPRPRPEQPPRP | 0.0618 |
| RRIRNRPPRLPRPRPRPERIPRP | -0.00936 |
| RRIRNRPPRLPRPRPRPESFPRP | -0.0337 |
| RRIRNRPPRLPRPRPRPETDPRP | -0.05 |
| RRIRNRPPRLPRPRPRPEVAPRP | 0.418 |
| RRIRNRPPRLPRPRPRPEVKPRP | -0.031 |
| RRIRNRPPRLPRPRPRPEWAPRP | 0.0317 |
| RRIRNRPPRLPRPRPRPEYCPRP | 0.00705 |
| RRIRNRPPRLPRPRPRPFAHPRP | -0.00369 |
| RRIRNRPPRLPRPRPRPFCVPRP | -0.0352 |
| RRIRNRPPRLPRPRPRPFFEPRP | -0.0529 |
| RRIRNRPPRLPRPRPRPFFSPRP | -0.14 |
| RRIRNRPPRLPRPRPRPFGEPRP | -0.0176 |
| RRIRNRPPRLPRPRPRPFGMPRP | 0.0298 |
| RRIRNRPPRLPRPRPRPFGWPRP | 0.0221 |
| RRIRNRPPRLPRPRPRPFLAPRP | -0.164 |
| RRIRNRPPRLPRPRPRPFLFPRP | -0.301 |

| Sequence | shrunken log2 fold change |
| --- | --- |
| RRIRNRPPRLPRPRPRPFLIPRP | 0.117 |
| RRIRNRPPRLPRPRPRPFMDPRP | 0.0237 |
| RRIRNRPPRLPRPRPRPFNEPRP | -0.198 |
| RRIRNRPPRLPRPRPRPFNHPRP | -1.02 |
| RRIRNRPPRLPRPRPRPFPGPRP | -0.00992 |
| RRIRNRPPRLPRPRPRPFTCPRP | -0.215 |
| RRIRNRPPRLPRPRPRPFTMPRP | -0.149 |
| RRIRNRPPRLPRPRPRPFTYPRP | -0.0143 |
| RRIRNRPPRLPRPRPRPFVDPRP | -0.725 |
| RRIRNRPPRLPRPRPRPFWPPRP | 0.226 |
| RRIRNRPPRLPRPRPRPFWSPRP | -0.146 |
| RRIRNRPPRLPRPRPRPGARPRP | 0.582 |
| RRIRNRPPRLPRPRPRPGCGPRP | 0.451 |
| RRIRNRPPRLPRPRPRPGDDPRP | 0.0116 |
| RRIRNRPPRLPRPRPRPGDTPRP | -0.0217 |
| RRIRNRPPRLPRPRPRPGEQPRP | 0.137 |
| RRIRNRPPRLPRPRPRPGERPRP | -0.0647 |
| RRIRNRPPRLPRPRPRPGFEPRP | 0.123 |
| RRIRNRPPRLPRPRPRPGGHPRP | -0.102 |
| RRIRNRPPRLPRPRPRPGHFPRP | 0.0512 |
| RRIRNRPPRLPRPRPRPGHGPRP | -0.19 |
| RRIRNRPPRLPRPRPRPGHNPRP | -0.64 |
| RRIRNRPPRLPRPRPRPGKDPRP | -0.0565 |
| RRIRNRPPRLPRPRPRPGKMPRP | -0.203 |
| RRIRNRPPRLPRPRPRPGKTPRP | 0.0837 |

| Sequence | shrunken log2 fold change |
| --- | --- |
| RRIRNRPPRLPRPRPRPGLSPRP | 0.486 |
| RRIRNRPPRLPRPRPRPGNEPRP | -0.223 |
| RRIRNRPPRLPRPRPRPGPMPRP | -0.0257 |
| RRIRNRPPRLPRPRPRPGPRPRP | 0.641 |
| RRIRNRPPRLPRPRPRPGQMPRP | 0.00315 |
| RRIRNRPPRLPRPRPRPGQYPRP | 0.0262 |
| RRIRNRPPRLPRPRPRPGSDPRP | -0.0348 |
| RRIRNRPPRLPRPRPRPGTIPRP | -0.316 |
| RRIRNRPPRLPRPRPRPGTLPRP | -0.0615 |
| RRIRNRPPRLPRPRPRPGTVPRP | -0.31 |
| RRIRNRPPRLPRPRPRPGVAPRP | 0.135 |
| RRIRNRPPRLPRPRPRPGWPPRP | 0.541 |
| RRIRNRPPRLPRPRPRPGWYPRP | -0.273 |
| RRIRNRPPRLPRPRPRPGYAPRP | -0.0974 |
| RRIRNRPPRLPRPRPRPGYSPRP | -0.42 |
| RRIRNRPPRLPRPRPRPGYTPRP | -0.501 |
| RRIRNRPPRLPRPRPRPHAWPRP | -0.0119 |
| RRIRNRPPRLPRPRPRPHDPPRP | -0.202 |
| RRIRNRPPRLPRPRPRPHDVPRP | -0.0113 |
| RRIRNRPPRLPRPRPRPHDYPRP | 0.0503 |
| RRIRNRPPRLPRPRPRPHFEPRP | 0.066 |
| RRIRNRPPRLPRPRPRPHFFPRP | 3.33 |
| RRIRNRPPRLPRPRPRPHFKPRP | -0.52 |
| RRIRNRPPRLPRPRPRPHGFPRP | 0.0815 |
| RRIRNRPPRLPRPRPRPHGLPRP | -0.257 |

| Sequence | shrunken log2 fold change |
| --- | --- |
| RRIRNRPPRLPRPRPRPHHLPRP | -0.427 |
| RRIRNRPPRLPRPRPRPHIQPRP | 2.34 |
| RRIRNRPPRLPRPRPRPHKWPRP | -0.285 |
| RRIRNRPPRLPRPRPRPHLIPRP | -0.00549 |
| RRIRNRPPRLPRPRPRPHMMPRP | -0.326 |
| RRIRNRPPRLPRPRPRPHMWPRP | -0.0758 |
| RRIRNRPPRLPRPRPRPHNLPRP | -0.272 |
| RRIRNRPPRLPRPRPRPHPMPRP | 0.0281 |
| RRIRNRPPRLPRPRPRPHPTPRP | -0.0363 |
| RRIRNRPPRLPRPRPRPHRWPRP | 0.0666 |
| RRIRNRPPRLPRPRPRPHVSPRP | -0.00166 |
| RRIRNRPPRLPRPRPRPHWFPRP | -0.318 |
| RRIRNRPPRLPRPRPRPICPPRP | -0.0189 |
| RRIRNRPPRLPRPRPRPIDDPRP | 0.00709 |
| RRIRNRPPRLPRPRPRPIDKPRP | -0.0756 |
| RRIRNRPPRLPRPRPRPIDSPRP | -0.0173 |
| RRIRNRPPRLPRPRPRPIDWPRP | 0.0533 |
| RRIRNRPPRLPRPRPRPIGTPRP | 0.000741 |
| RRIRNRPPRLPRPRPRPIIAPRP | -0.127 |
| RRIRNRPPRLPRPRPRPIKKPRP | 0.149 |
| RRIRNRPPRLPRPRPRPIKTPRP | -0.0156 |
| RRIRNRPPRLPRPRPRPIKWPRP | -0.498 |
| RRIRNRPPRLPRPRPRPILDPRP | -0.0452 |
| RRIRNRPPRLPRPRPRPILKPRP | 0.0926 |
| RRIRNRPPRLPRPRPRPIPTPRP | -0.0847 |

| Sequence | shrunken log2 fold change |
| --- | --- |
| RRIRNRPPRLPRPRPRPIQTPRP | -0.0112 |
| RRIRNRPPRLPRPRPRPIRAPRP | -0.0265 |
| RRIRNRPPRLPRPRPRPISIPRP | 0.0125 |
| RRIRNRPPRLPRPRPRPITFPRP | -0.0674 |
| RRIRNRPPRLPRPRPRPIVYPRP | -0.528 |
| RRIRNRPPRLPRPRPRPIWCPRP | -0.0833 |
| RRIRNRPPRLPRPRPRPKCFPRP | -0.192 |
| RRIRNRPPRLPRPRPRPKCQPRP | 0.0753 |
| RRIRNRPPRLPRPRPRPKCWPRP | 0.173 |
| RRIRNRPPRLPRPRPRPKDLPRP | -0.0125 |
| RRIRNRPPRLPRPRPRPKEFPRP | -0.012 |
| RRIRNRPPRLPRPRPRPKEGPRP | -0.0345 |
| RRIRNRPPRLPRPRPRPKFRPRP | 0.00344 |
| RRIRNRPPRLPRPRPRPKGMPRP | -0.112 |
| RRIRNRPPRLPRPRPRPKGVPRP | 2.97 |
| RRIRNRPPRLPRPRPRPKHLPRP | -0.403 |
| RRIRNRPPRLPRPRPRPKHYPRP | -0.399 |
| RRIRNRPPRLPRPRPRPKIAPRP | 0.0241 |
| RRIRNRPPRLPRPRPRPKIGPRP | -0.0153 |
| RRIRNRPPRLPRPRPRPKIHPRP | -0.719 |
| RRIRNRPPRLPRPRPRPKINPRP | -0.387 |
| RRIRNRPPRLPRPRPRPKKLPRP | -0.0729 |
| RRIRNRPPRLPRPRPRPKLHPRP | -0.0882 |
| RRIRNRPPRLPRPRPRPKLLPRP | 0.127 |
| RRIRNRPPRLPRPRPRPKLRPRP | 0.00281 |
